Assay results reported in US20230295313A1 (published 2023).

Key:
[1] = molecular target: T1, human IL1RAP extracellular domain protein (GK002, HuIL1Racp-ECD-His6) (human, UniProt Q9NPH3 21-367); assay: SPR (Biacore T200), mAb captured by anti-Fc IgG, His-tagged human IL1RAP ECD as analyte
T1 construct: also called His-tagged human IL-1RAP extracellular domain protein; HuIL1RAP-ECD-His6 (GK002)
T1 sequence: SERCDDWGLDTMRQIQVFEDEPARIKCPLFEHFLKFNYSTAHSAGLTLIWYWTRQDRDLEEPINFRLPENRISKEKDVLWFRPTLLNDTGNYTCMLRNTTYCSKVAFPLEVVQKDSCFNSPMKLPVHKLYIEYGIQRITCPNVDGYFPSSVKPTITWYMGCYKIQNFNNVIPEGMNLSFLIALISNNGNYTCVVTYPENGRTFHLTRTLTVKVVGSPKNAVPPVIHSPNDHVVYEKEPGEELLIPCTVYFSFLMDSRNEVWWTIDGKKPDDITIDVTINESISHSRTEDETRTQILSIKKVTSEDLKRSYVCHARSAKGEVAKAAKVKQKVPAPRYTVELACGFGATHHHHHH
Description: The binding kinetics and affinities of murine anti-human IL1RAP mAbs for human IL1RAP protein were determined by surface plasmon resonance technology using the Biocore T200 platform. An anti-Fc IgG antibody was immobilized on the surface of a Biacore chip and used to capture the test antibody at a flow rate of 30 µL/min. Serial dilutions of His-tagged human IL-1RAP extracellular domain protein were then flowed over the chip, with a 3-minute association phase, followed by a 20-60 minute dissociation phase. In between cycles, the Biacore chip was regenerated for 120 seconds by flowing Glycine pH 1.5 over the chip at a flow rate of 10 µL/min. Association (ka) and dissociation (kd) constants were determined, as were binding affinities (KD), with the multiple cycle kinetics algorithm.

[2] = molecular target: T2, human IL1RAP on the cell surface (HEK293/IL1RAP cells; IL1RAP-expressing OCI-AML-1 cells) (human, UniProt Q9NPH3 21-570); assay: cell-based or functional assay
T2 sequence: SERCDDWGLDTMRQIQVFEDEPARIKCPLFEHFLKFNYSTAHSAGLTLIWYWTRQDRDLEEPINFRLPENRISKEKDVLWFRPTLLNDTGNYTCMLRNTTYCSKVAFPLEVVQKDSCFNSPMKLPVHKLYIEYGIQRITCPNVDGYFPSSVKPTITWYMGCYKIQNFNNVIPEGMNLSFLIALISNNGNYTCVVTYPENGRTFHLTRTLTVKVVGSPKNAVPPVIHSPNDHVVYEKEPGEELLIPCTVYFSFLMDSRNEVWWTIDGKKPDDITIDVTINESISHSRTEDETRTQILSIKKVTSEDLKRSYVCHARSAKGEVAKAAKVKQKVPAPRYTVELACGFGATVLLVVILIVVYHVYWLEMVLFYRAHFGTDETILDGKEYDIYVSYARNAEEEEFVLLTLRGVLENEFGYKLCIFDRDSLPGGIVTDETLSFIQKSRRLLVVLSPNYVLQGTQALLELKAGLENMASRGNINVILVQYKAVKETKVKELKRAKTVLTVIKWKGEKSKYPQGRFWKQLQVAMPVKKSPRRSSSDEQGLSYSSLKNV

[3] = molecular target: T2, human IL1RAP on the cell surface …; assay: cell-based or functional assay; remark: listed apart in the source
[4] = molecular target: T3, Soluble Human IL1RAP (sIL1RAP) (human, UniProt Q9NPH3 21-367); assay: SPR, antibody captured via Protein A on CM5 chip, 25° C., 1:1 fit, average of 3 runs
Description: (§1) Human and cyno IL1RAP ECD, and human soluble IL1RAP, were then flowed over the captured antibody to replicate non-avid target binding. Data were analyzed using a 1:1 kinetic fit model.

Cyno IL1RAP ECD [5] = molecular target: T4, Cyno IL1RAP ECD (cynomolgus monkey, UniProt A0A2K5X5J5 21-367); assay: as above
T4 construct: extracellular domain; Analyte in the GSK3903371A SPR study; also called cynomolgus monkey IL1RAP ECD
T4 sequence: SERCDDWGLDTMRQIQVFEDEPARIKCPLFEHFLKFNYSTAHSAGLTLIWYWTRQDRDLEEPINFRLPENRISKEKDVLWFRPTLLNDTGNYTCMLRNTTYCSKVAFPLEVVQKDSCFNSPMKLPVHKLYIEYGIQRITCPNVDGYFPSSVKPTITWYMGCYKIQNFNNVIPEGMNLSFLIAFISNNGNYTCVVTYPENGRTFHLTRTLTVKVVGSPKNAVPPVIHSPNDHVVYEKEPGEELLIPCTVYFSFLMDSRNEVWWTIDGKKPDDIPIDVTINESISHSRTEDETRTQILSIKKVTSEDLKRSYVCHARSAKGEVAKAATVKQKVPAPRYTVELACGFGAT
Description: as §1

Human IL1RAP ECD [6] = molecular target: T5, Human IL1RAP ECD (human, UniProt Q9NPH3 21-367); assay: as above
T5 construct: Analyte in the GSK3903371A SPR study; also called human IL1RAP extracellular domain (ECD); recombinant human IL1RAP ECD
T5 sequence: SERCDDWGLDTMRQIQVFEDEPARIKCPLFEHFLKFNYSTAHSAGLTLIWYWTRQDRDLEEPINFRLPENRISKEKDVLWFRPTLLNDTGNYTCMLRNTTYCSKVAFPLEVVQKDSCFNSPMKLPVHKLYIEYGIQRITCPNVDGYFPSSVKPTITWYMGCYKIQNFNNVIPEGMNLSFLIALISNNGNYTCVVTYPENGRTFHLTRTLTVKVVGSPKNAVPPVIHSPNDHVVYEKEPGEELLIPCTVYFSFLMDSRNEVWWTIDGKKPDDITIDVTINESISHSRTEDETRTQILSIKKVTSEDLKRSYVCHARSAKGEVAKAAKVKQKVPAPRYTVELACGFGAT
Description: as §1

[7] = molecular target: T3, Soluble Human IL1RAP (sIL1RAP); assay: SPR, antibody captured via Protein A on CM5 chip, 37° C., 1:1 fit, average of 2 runs
Description: as §1

Cyno IL1RAP ECD [8] = molecular target: T4, Cyno IL1RAP ECD; assay: as above
Description: as §1

Human IL1RAP ECD [9] = molecular target: T5, Human IL1RAP ECD; assay: as above
Description: as §1

cyno IL1RAP (GK017, …) = molecular target: T6, cyno IL1RAP (GK017, CynoIL1Racp-ECD-His6) (cyno, UniProt A0A2K5X5J5 21-367); assay: SPR (Biacore T200), mAb captured by anti-human IgG Fc on CM5, ECD-His6 as analyte, 1:1 fit
T6 construct: extracellular domain; also called CynoIL1RAP-ECD-His6 (GK017); cyno IL1RAP-ECD-His6 protein
T6 sequence: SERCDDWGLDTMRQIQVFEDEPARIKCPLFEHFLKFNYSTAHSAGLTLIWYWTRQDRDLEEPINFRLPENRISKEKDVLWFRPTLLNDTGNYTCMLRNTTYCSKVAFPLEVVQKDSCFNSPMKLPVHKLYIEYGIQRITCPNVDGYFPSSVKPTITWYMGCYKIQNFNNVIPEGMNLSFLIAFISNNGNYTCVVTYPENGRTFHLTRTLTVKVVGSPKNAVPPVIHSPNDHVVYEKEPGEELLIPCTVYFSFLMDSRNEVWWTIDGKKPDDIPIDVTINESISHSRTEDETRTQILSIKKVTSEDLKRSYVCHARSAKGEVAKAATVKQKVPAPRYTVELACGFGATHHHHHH
Description: (§2) Serial dilutions of recombinant human IL1RAP-ECD-His6 protein (GK002) or cyno IL1RAP-ECD-His6 protein (GK017) were flowed over the captured humanized mAb, and the KD was determined using Biacore T200 evaluation software v1.0.
(§3) Flow cell 1 was used as reference flow cell and no antibody was injected into flow cell 1. Test antibodies were captured onto one of the flow cells 2, 3 and 4 at a flow rate of 10 µL/min. Diluted GK002 or GK017 was then injected over the 4 flow cells for 180 s at 30 µL/min flow rate to collect data for association. Buffer flow was maintained for 1200 s at 30 µL/min flow rate for dissociation measurement. At the end of the dissociation measurement, the tested antibody and antigen were removed from the surface by 10 mM glycine-HCl pH 1.5 injection for 60 seconds at a flow rate of 10 µL/min. The above steps were repeated for each concentration of serially-diluted His-tagged IL1RAP ECD protein. The KD value for each antibody was evaluated using Biacore T200 evaluation software 1.0, and the data was fit with a 1:1 binding model.

[10] = molecular target: T1, human IL1RAP extracellular domain …; assay: as above
Description: as §2, §3

B1: murine mAb117 (antibody, V domains shown)
VH: QAYLQQSGAELVRPGASVKMSCKASGYTFTSYNMHWVKQSPRQGLEWVGVFYLGNGDTSYNEKFKGKATLTVDKSSSTAYMQLSSLTSEDSAVYFCARPGGYANWYFDVWGTGTTVTVSS
VL: DIVMTQSQKFMSTSVGDWVSVTCKASQNVGTEVSWYQQKPGQSPNTLIYSASYRHSGVPDRFTGSGSGTEFTLTITNVQSEDLADYFCQQYNSFPLTFGAGTKLDLK
notes: Murine anti-human IL1RAP mAb
[1]
  Kd: 0.193 nM
  koff: 4.28e-05 s⁻¹
  kon: 222000 M⁻¹ s⁻¹

B2: murine mAb048 (antibody, V domains shown)
VH: QVQLQQPGADLVKPGASVKLSCKAYGYTFFSYWMHWVRQRPGQGLEWIGMIHPNSGTTNNNEKFKSKATLTVDKSFSTAYMQLSSLTSEDSAVYYCARGYSNYDFDYWGQGTILTVSS
VL: DIKMTQFPSSMYASLGERVTITCKASQDINTYLIWIQQKPGKSPKTLIYRANRLADGVPSRFSGSGSGQDSSLTISSLEHEDMGIYYCLQYDEFPYTFGGGTKLEIK
notes: Murine anti-human IL1RAP mAb
[1]
  Kd: 0.357 nM
  koff: 4.48e-05 s⁻¹
  kon: 125000 M⁻¹ s⁻¹

B3: murine mAb067 (antibody, V domains shown)
VH: QVKLHQSGAELAKPGASVKMSCKASGYTFNSYWIHWVKQRPGQGLEWIGYNNPTSGYSEYNQKFTDKATLSADKSSSTAYMQLSSLTSEDSAVYYCVREYGDLFAYWGQGTLVTVSA
VL: NIVMTQSPKSMSMSVGERVTLSCKASENVGYSVSWFQQKPDQSPKLLIYGASNRYTGVPDRFTGSGSATDFTLTISTVQAEDLADYHCGQIYIYPYTFGGGTKLEIK
notes: Murine anti-human IL1RAP mAb
[1]
  Kd: 0.3 nM
  koff: 0.000102 s⁻¹
  kon: 340000 M⁻¹ s⁻¹

B4: GSK3903371A (antibody, human IgG1, kappa, V domains shown)
VH: EVQLVQSGAEVKKPGSSVKVSCKASGYTFNSYWIHWVRQAPGQGLEWMGYNNPTSGYSEYNQKFTDRVTITADKSTSTAYMELSSLRSEDTAVYYCAREYGDLFAYWGQGTLVTVSS
VL: AIQMTQSPSSLSASVGDRVTITCKASENVGYSVSWFQQKPGKSPKLLIYGASNRYTGVPSRFSGSGSATDFTLTISSLQPEDFATYHCGQIYIYPYTFGGGTKVEIKR
modifications: heavy chain constant region afucosylated (expressed in FUT8-knockout POTELLIGENT CHO cells)
notes: Humanized IgG1 kappa; also called afucosylated anti-IL1RAP mAb GSK3903371A
[2]
  ADCC EC50, PBMC effector cells, OCI-AML-1 target cells, experiment 1: 0.0633 nM
  ADCC EC50, PBMC effector cells, OCI-AML-1 target cells, experiment 2: 0.0589 nM
  ADCC EC50, PBMC effector cells, OCI-AML-1 target cells, experiment 3: 0.0705 nM
  ADCC EC50, geometric mean (n=3), OCI-AML-1 target cells: 0.0641 nM
[3]
  CDC EC50, HEK293/IL1RAP target cells, experiment 1: 6.16 nM
  CDC EC50, HEK293/IL1RAP target cells, experiment 2: 5.9 nM
[4]
  Kd: 2.03 nM
  koff: 0.000199 s⁻¹
Cyno IL1RAP ECD [5]
  Kd: 1.53 nM
  koff: 0.000226 s⁻¹
Human IL1RAP ECD [6]
  Kd: 1.61 nM
  koff: 0.000268 s⁻¹
[7]
  Kd: 3.58 nM
  koff: 0.00101 s⁻¹
Cyno IL1RAP ECD [8]
  Kd: 3.47 nM
  koff: 0.000946 s⁻¹
Human IL1RAP ECD [9]
  Kd: 2.54 nM
  koff: 0.000942 s⁻¹

B5: mAb067-12 (humanized) (antibody, human IgG1, kappa, V domains shown)
VH: EVQLVQSGAEVKKPGSSVKVSCKASGYTFNSYWIHWVRQAPGQGLEWMGYNNPTSGYSEYNQKFTDRVTITADKSTSTAYMELSSLRSEDTAVYYCAREYGDLFAYWGQGTLVTVSS
VL: AIQMTQSPSSLSASVGDRVTITCKASENVGYSVSWFQQKPGKSPKLLIYGASNRYTGVPSRFSGSGSATDFTLTISSLQPEDFATYHCGQIYIYPYTFGGGTKVEIKR
notes: Fucosylated humanized IgG1; same chains as GSK3903371A; also called HumAb67-12; HumAb067-12
[3]
  CDC EC50, HEK293/IL1RAP target cells, experiment 1: 5.13 nM
  CDC EC50, HEK293/IL1RAP target cells, experiment 2: 4.7 nM
Cyno IL1RAP (GK017, …)
  Kd: 0.899 nM
  koff: 0.00015 s⁻¹
  kon: 167000 M⁻¹ s⁻¹
[10]
  Kd: 0.953 nM
  koff: 0.000161 s⁻¹
  kon: 169000 M⁻¹ s⁻¹

B6: murine mAb001 (antibody, V domains shown)
VH: QVQLQQPGAELVRPGSSVKLSCKASGYTFTSYWMDWVKQRPGQGLEWIGNIYPSDSKTHYNQKFKDKATLTVDKSSSTAYMQLSSLTSEDSAVYYCARDYYGSIGMDYWGQGTSVTVSS
VL: DIQMTQSPSSLSASLGERVSLTCRASQEISGYLSWLQQKPDGTIKRLIYAASTLDSGVPKRFSGSRSGSDYSLTISSLESEDFADYYCLQYASYPWTFGGGTKLEIK
notes: Murine anti-human IL1RAP mAb
[1]
  Kd: 4.97 nM
  koff: 0.000282 s⁻¹
  kon: 56700 M⁻¹ s⁻¹

B7: mAb063 (antibody, V domains shown)
VH: EVQLQQSGPELVKPGASVKISCKASGYTFTDYYMNWVKQSHGKSLEWIGHINPNSGSTTYTEKFKDKATLTVDKSSSTAYMELRSLTSDDSAVYYCVRRIGKNWHCDVWGTGTTVTVSS
VL: DIVLTQSPASLAVSLGQRATISCRASESVNFHGTHLMHWYQQKPGQAPKLLIYAASNLDSGVPARFSGSGSETDFTLNIHPVEEEDAATYFCQQSIEDPFTFGSGTYLEIK
notes: Murine anti-human IL1RAP mAb; also called murine mAb063
[1]
  Kd: 0.0496 nM
  koff: 2.12e-05 s⁻¹
  kon: 426000 M⁻¹ s⁻¹
